Drawing on patent publication US20240239894A1 (AstraZeneca / MedImmune, published 2024), this text covers binding result, EC50 and Max for five molecules.

Positions count from the first letter of the chain named.

One assay has as its target T1, huBTNL3 (human, UniProt Q6UXE8 18-237, limits assumed).
T1 construct: Sourced antigen; construct not described; also called Human BTNL3
T1 sequence (looked up): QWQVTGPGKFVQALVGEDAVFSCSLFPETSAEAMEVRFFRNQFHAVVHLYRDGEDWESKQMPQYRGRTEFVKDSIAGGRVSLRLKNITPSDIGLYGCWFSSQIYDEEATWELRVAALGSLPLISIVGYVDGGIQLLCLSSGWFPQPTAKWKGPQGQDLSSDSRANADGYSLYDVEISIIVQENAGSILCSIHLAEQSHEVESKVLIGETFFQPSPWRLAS
The assay is described as follows: ELISA. (ELISA stands for enzyme-linked immunosorbent assay.)

Another assay has as its target T2, huBTN2A1 (human, UniProt Q7KYR7 29-248, limits assumed).
T2 construct: Sourced antigen; construct not described; also called Human BTN2A1
T2 sequence (looked up): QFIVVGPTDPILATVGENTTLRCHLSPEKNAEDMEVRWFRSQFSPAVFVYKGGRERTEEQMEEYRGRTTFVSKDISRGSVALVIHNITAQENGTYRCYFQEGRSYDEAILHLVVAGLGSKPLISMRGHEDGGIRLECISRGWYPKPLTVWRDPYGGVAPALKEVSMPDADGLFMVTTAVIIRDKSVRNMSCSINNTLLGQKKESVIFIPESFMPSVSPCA
The assay is described as follows: ELISA.

The target in assay [1] is T3, Human B7-H4-Fc (Human B7H4 ECD, Fc_6His) (human).
T3 construct: also called FcHis6 tagged human B7-H4
T3 sequence (Q7Z7D3 whole entry, looked up): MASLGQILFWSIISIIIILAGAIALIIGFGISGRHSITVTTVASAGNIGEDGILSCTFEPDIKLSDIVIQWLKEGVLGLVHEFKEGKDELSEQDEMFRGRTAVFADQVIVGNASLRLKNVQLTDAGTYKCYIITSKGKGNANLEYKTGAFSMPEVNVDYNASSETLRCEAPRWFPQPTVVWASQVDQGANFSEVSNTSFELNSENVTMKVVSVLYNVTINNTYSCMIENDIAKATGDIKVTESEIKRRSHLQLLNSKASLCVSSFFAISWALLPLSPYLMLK
The assay can be described thus: HTRF binding, murine IgG1.

The next assay has as its target T4, huBTN1A1 (human, UniProt Q13410 27-242, limits assumed).
T4 construct: Sourced antigen; construct not described; also called Human BTN1A1
T4 sequence (looked up): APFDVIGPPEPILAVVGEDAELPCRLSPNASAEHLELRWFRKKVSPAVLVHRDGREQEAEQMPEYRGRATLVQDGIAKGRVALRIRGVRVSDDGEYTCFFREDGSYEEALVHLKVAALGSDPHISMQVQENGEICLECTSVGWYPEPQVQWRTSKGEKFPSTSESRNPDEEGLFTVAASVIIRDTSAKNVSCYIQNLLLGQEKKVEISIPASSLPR
The assay can be described thus: ELISA, absorbance 450 nm, antigen human BTN1A1 GST.

The next assay deals with T5, huB7-H3 (human, UniProt Q5ZPR3 29-461, limits assumed).
T5 construct: Sourced antigen; construct not described; also called Human B7-H3
T5 sequence (looked up): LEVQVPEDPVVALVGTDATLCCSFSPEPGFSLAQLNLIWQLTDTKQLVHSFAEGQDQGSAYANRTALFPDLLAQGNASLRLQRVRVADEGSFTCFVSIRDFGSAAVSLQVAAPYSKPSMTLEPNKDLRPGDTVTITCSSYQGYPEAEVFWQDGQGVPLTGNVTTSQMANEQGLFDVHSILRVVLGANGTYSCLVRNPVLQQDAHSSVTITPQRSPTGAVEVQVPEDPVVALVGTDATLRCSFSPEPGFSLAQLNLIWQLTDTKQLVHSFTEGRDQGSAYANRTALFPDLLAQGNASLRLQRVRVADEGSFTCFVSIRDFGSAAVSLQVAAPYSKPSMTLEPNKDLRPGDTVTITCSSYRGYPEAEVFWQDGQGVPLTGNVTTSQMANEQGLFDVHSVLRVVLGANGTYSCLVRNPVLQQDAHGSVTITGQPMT
The assay can be described thus: ELISA, absorbance 450 nm, antigen human B7-H3 (ECD) Fc.

Another assay has as its target T6, huBTN3A2 (human, UniProt P78410 30-248, limits assumed).
T6 construct: Sourced antigen; construct not described; also called Human BTN3A2
The assay can be described thus: ELISA, absorbance 450 nm, antigen human BTN3A2 GST.

In assay [2] the target is T7, Cyno B7-H4-Fc (Cyno B7H4 ECD, FcTM_6His) (cynomolgus monkey).
T7 construct: extracellular domain; also called cynomolgus B7-H4-Fc
The assay is described as follows: HTRF binding, murine IgG1. On the technique in general: Time-resolved FRET reads energy transfer from a long-lived donor to a nearby acceptor.

A further assay addresses T8, huB7-H2 (human, UniProt O75144 19-258).
T8 construct: Sourced antigen; construct not described; also called Human B7-H2
T8 sequence (looked up): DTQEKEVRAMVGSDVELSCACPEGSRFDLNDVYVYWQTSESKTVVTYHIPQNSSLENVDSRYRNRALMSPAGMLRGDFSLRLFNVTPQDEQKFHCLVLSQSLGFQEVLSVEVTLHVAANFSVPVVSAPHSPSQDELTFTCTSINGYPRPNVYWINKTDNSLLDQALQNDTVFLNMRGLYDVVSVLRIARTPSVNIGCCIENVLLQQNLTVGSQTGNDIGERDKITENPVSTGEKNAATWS
The assay is described as follows: ELISA, absorbance 450 nm, antigen human B7-H2 (ECD) F10H.

In a further assay the target is T9, huB7-H1 (human, UniProt Q9NZQ7 19-238).
T9 construct: Sourced antigen; construct not described; also called Human B7-H1
T9 sequence (Q9NZQ7 19-238 limits assumed): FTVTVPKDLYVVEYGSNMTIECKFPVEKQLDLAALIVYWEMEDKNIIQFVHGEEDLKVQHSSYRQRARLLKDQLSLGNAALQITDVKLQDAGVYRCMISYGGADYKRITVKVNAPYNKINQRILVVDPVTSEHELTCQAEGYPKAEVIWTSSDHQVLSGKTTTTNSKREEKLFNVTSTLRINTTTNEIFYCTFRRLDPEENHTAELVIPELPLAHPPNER
The assay is described as follows: ELISA, absorbance 450 nm, antigen human B7-H1(ECD) F10H.

The target in assay [3] is T10, Murine B7-H4-Fc (Mouse B7H4 ECD, Fc_6His) (mouse, UniProt Q7TSP5 25-257).
T10 construct: extracellular domain; also called mouse B7-H4-Fc; FcHis6 tagged murine B7-H4
T10 sequence (Q7TSP5 whole entry, looked up): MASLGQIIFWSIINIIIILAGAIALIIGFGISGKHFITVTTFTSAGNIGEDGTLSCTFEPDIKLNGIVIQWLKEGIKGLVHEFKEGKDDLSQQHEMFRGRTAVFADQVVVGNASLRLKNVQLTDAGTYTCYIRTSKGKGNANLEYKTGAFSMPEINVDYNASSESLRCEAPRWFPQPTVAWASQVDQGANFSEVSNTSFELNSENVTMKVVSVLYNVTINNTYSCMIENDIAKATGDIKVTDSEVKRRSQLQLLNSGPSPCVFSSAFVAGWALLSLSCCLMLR
The assay can be described thus: HTRF binding, murine IgG1.

A further assay addresses T11, huHHLA2 (human, UniProt Q9UM44 23-344).
T11 construct: Sourced antigen; construct not described; also called Human HHLA2
T11 sequence (looked up): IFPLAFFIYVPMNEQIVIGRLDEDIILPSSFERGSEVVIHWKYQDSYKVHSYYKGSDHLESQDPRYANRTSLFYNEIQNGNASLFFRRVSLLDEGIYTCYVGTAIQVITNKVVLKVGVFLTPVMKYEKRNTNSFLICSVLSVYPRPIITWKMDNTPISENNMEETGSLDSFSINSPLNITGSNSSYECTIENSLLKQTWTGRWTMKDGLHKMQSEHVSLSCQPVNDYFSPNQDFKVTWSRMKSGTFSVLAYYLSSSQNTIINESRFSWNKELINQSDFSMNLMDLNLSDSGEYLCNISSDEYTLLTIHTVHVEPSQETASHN
The assay is described as follows: ELISA, absorbance 450 nm, antigen human HHLA2 GST.

T6 sequence (P78410 30-248 limits assumed): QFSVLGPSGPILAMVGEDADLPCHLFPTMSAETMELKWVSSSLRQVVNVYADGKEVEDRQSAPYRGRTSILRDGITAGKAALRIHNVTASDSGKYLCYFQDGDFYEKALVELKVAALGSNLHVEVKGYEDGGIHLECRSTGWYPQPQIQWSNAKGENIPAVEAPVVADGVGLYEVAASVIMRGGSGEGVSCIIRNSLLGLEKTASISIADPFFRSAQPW

B1: ZY0EOB-F05 murine IgG1 (antibody, V domains shown)
VH: QVQLQESGPGLVKPSQTLSLTCTVSDGSISSGGYYWSWIRQHPGKGLEWIGNIYYSGSTYYNPSLKSRVTISVDTSKNQFSLKLNSVTAADTAVYYCATEKALATVTPSGYENYYTVDVWGQGTTVTVSS
VL: DIQLTQSPSFLSASVGDRVTITCWASQGISSYLAWYQQKPGKAPKLLIYAASTLQSGVPSRFSGSGSGTEFTLTISSLQPEDFATYYCQHLNSYPLTFGGGTKVEIK
By EC50 is commonly meant the concentration that produces a half-maximal response. A higher EC50 goes with lower potency in that assay. Consider B1, for which the binding result with huBTNL3 is on record as “no binding”; with huBTN2A1, “no binding”; with huBTN1A1, “no binding (tested: 10 µg/ml (antigen))”; with huB7-H3, “no binding”; in the assay with huBTN3A2 it was “no binding (tested: about 10 µg/ml (antigen))”; with huB7-H2 it was “no binding (tested: 10 µg/ml (antigen))”. Moreover, the results for the binding result with huB7-H1 and with huHHLA2 were “no binding (tested: 10 µg/ml (antigen))” and “no binding (tested: about 10 µg/ml (antigen))”, respectively. Moreover, the EC50 in assay [1] was determined as 0.3 nM; in assay [2], 0.32 nM; in assay [3], 0.38 nM. The values for the Max in assay [1], in [2] and in [3] were 3020, 2400 and 2190, respectively.

B2: human ZY0EOB-F05 (antibody, V domains shown)
VH: B1 VH
VL: B1 VL
In the case of B2, the binding result is “no binding (tested: 10 µg/ml (antigen))” in the assay with huBTN1A1; “no binding” with huB7-H3; “no binding (tested: about 10 µg/ml (antigen))” with huBTN3A2; “no binding (tested: 10 µg/ml (antigen))” in the assay with huB7-H2; “no binding (tested: 10 µg/ml (antigen))” in the assay with huB7-H1; “no binding (tested: about 10 µg/ml (antigen))” with huHHLA2.

B3: human ZY0EO5-E07 (antibody, V domains shown)
VH: B1 VH with D26G, N85S, T99R, T105S, T107I, T116V
VL: B1 VL with D17G, S30A, S31G
Take B3: the binding result in the assay with huBTN1A1 is recorded as “no binding (tested: 10 µg/ml (antigen))”; with huB7-H3, “no binding”; with huBTN3A2, “no binding (tested: about 10 µg/ml (antigen))”; in the assay with huB7-H2, “no binding (tested: 10 µg/ml (antigen))”; with huB7-H1 it was “no binding (tested: 10 µg/ml (antigen))”; with huHHLA2, “no binding (tested: about 10 µg/ml (antigen))”.

B4: human ZY0EPQ-E02 (antibody, V domains shown)
VH: QVQLQQWGAGLLKPSETLSLTCAVYGGSFSGYYWNWIRQPPGKGLEWIGEINHSGSTNYNPSLKSRVTILVDTSKNQFSLKLSSVTAADTAVYYCARNLYNWNLDSWGQGTLVTVSS
VL: DIQMTQSPSSLSASVGDRVTITCRASQGIRNDLGWYQQKPGRAPKRLIYVASSLQSGVPSRFSGSGSGTEFTLTISSLQPEDFATYYCLQHNSYPRTFGQGTKVEIK
Take B4: the binding result with huBTN1A1 is recorded as “no binding (tested: 10 µg/ml (antigen))”; with huB7-H3, “no binding”; in the assay with huBTN3A2 it was “no binding (tested: about 10 µg/ml (antigen))”; with huB7-H2, “no binding (tested: 10 µg/ml (antigen))”; with huB7-H1, “no binding (tested: 10 µg/ml (antigen))”; with huHHLA2, “no binding (tested: about 10 µg/ml (antigen))”.

B5: human ZY0EP0-C07 (antibody, V domains shown)
VH: QVQLVESGGVLVKPGGSLRLSCAASGFTLSDYYMSWIRQAPGMGLEWVSYISSSGSTIYYTDSVKGRFTISRDSAKNSLYLQMNSLRAEDTAVYYCARDGVGFDYWGQGTLVTVSS
VL: EIVLTQSPGTLSLFPGERATLSCRASQSVSSSYLAWYQQKPGQSPRLLIYAASSRATGIPDRFSGSGSGTDFTLTISRLEPEDFAVYYCQQYGSSPLYTFGQGTKLEIK
On to B5, for which the binding result is “no binding (tested: 10 µg/ml (antigen))” with huBTN1A1; “no binding” in the assay with huB7-H3; “no binding (tested: about 10 µg/ml (antigen))” in the assay with huBTN3A2; “no binding (tested: 10 µg/ml (antigen))” in the assay with huB7-H2; “no binding (tested: 10 µg/ml (antigen))” in the assay with huB7-H1; “no binding (tested: about 10 µg/ml (antigen))” in the assay with huHHLA2.
